This is an account of results in PMC3299805 (Immunity, 2012).

Assay [1] concerns the target T1, JAK2 catalytic domain, JAK2JH1 (UniProt O60674 840-1128). The assay can be described thus: cell-based or functional assay.
The target of assay [2] is T1, JAK2 catalytic domain, JAK2JH1. Kind of assay: steady-state enzyme kinetics.
Assay [3] shares this target. The assay can be described thus: steady-state enzyme kinetics. This is another data set of the same source.

Where two headings read alike, the source gives them in different places.

T1 sequence (O60674 840-1128): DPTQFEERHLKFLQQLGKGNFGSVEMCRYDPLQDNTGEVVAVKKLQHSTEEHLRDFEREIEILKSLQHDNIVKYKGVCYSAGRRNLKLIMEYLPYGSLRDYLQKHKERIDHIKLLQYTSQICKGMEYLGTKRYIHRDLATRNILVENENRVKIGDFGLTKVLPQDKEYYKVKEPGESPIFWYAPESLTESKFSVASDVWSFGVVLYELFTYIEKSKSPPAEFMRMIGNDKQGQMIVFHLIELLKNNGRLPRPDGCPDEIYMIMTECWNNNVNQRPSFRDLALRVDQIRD

B1: SOCS3_(22–225)ΔPEST in complex with elongins B and C (complex)
chain 1: LKTFSSKSEYQLVVNAVRKLQESGFYWSAVTGGEANLLLSAEPAGTFLIRDSSDQRHFFTLSVKTQSGTKNLRIQCEGGSFSLQSDPRSTQPVPRFDCVLKLVHHYMGSGSGSGSAYYIYSGGEKIPLVLSRPLSSNVATLQHLCRKTVNGHLDSYEKVTQLPGPIREFLDQYDAPL
chain 2: MDVFLMIRRHKTTIFTDAKESSTVFELKRIVEGILKRPPDEQRLYKDDQLLDDGKTLGECGFTSQTARPQAPATVGLAFRADDTFEALCIEPFSSPPELPDVMKPQDSGSSANEQAVQ
chain 3: MYVKLISSDGHEFIVKREHALTSGTIKAMLSGPGQFAENETNEVNFREIPSHVLSKVCMYFTYKVRYTNSSTEIPEFPIAPEIALELLMAANFLDC
B1: the “IC50 of inhibition of the kinase domain's activity (Figure 2A)” value in assay [1] turned out to be 1500 nM. The Ki in assay [2] worked out at 1500 ± 700 nM; in assay [3], 1200 ± 300 nM.

One may read the Ki as the equilibrium dissociation constant of an inhibitor or competing ligand from its target. High values mean a looser hold on the target, low ones a stronger hold on the target.
